US20180325836A1, “ULTRASONIC TRANSDUCERS SUITABLE FOR ULTRASONIC DRUG DELIVERY VIA A SYSTEM, WHICH IS PORTABLE AND WEARABLE BY THE PATIENT” (BKR IP Holdco LLC, priority 2015, published 2018)

Experiments:
[1] = Drug survivability after ultrasonic exposure (HPLC analysis of insulin); format: physicochemical
Description: Since the transducers of this invention are designed primarily for application in a drug delivery system the Applicant deemed it necessary to test the effect of the ultrasonic signal upon an active pharmaceutical substance. High intensity and high frequency ultrasound is theorized to be capable of inducing a cavitation effect within a drug, leading to an increase in temperature and a degradation of the drug molecule. For the following experiment Insulin (Humulin Regular-supplied by the Eli Lilly Company) was subjected to ultrasound emitted from a stacked array of the transducers of this invention, set to operate at 20 k Hz frequency and at 125 mW/sq. cm intensity level, for one, eight and eleven continuous hours of exposure. The insulin was placed in a plastic pouch within a hydrophone tank containing water and stirred during ultrasonic exposure. A control sample, which was untreated, but allowed to sit in the pouch and tank for one, eight and eleven hours, was also made. Samples were sent to Celsis Laboratories for independent analysis.

rat skin = conditions: rats, after ultrasonic transdermal insulin delivery with transducer array
Description: The belly of the rats were shaved to produce a skin area as close in configuration as would be present in the human situation. The transducer arrays were placed directly onto the rat skin surface and adhered to the skin by means of an adhesive.
A section of the skin where the transducer was placed is marked on the skin.

rats = test: Ultrasonically enhanced transdermal insulin delivery in live rats, blood glucose levels; format: in vivo, rat
Description: A four-element transducer was fabricated using four standard cymbal element transducers in one array system (Array #1) and four stacked cymbal element transducers in another system (Array #2). Array #1, the standard array, was set to operate at 20 k Hz frequency and at 125 mW/sq. cm intensity level. Array #2, the stacked array, was set to operate at 20 k Hz frequency and at 225 mW/sq. cm intensity level.
The transducer's arrays were fitted with a reservoir at the bottom end, into which Humulin Regular Insulin (supplied by Eli Lilly Company) was inserted. A total of […] of insulin was added, providing 100 units of insulin for the each test.
Two groups of test rates were assembled. The first group (Group-1) would receive the ultrasonic transmission while the second group would receive no ultrasound. In the second group (Group-2) the transducers arrays were loaded with insulin and the insulin was allowed to pool onto the surface of the rat skin, but there was no active ultrasonic transmission.
Next a frequency generator was employed to propagate the pulsed ultrasonic transmission, which used 100 millisecond pulses, with a pulse rate of one pulse per second, a duty cycle of 10%, for one hour.
Both Group-1 and Group-2 animals were tested for 120 minutes. Blood samples were taken from the animals according to standard investigative procedure every 30 minutes for the first hour and every hour after and analyzed for glucose levels and the presence of insulin. The Group-1 animals were exposed to ultrasound for 60 minutes, after which the ultrasound was terminated for the balance of the test period. Glucose levels in both groups were observed over the 120 minute period.

Substance: Insulin [Humulin Regular]
- degradation of insulin or excipient solution (HPLC scan) ([1]; control sample, no ultrasound, left in pouch and tank): no degradation
- degradation of insulin or excipient solution (HPLC scan) ([1]; ultrasonically treated sample, eight hours of continuous exposure, 20 k Hz, 125 mW/sq. cm): no degradation
- change in the insulin versus untreated insulin (independent analysis) ([1]; ultrasound from stacked array, 20 k Hz, 125 mW/sq. cm, one, eight and eleven continuous hours): no change
- skin damage at test area (rat skin): no skin damage
- glucose level (rats; Group-1 rats, insulin on skin with active ultrasound (20 k Hz), minute 30 and minute 60): significant reduction
- glucose level after termination of the ultrasound (rats; Group-1 rats, minute 60 to 120, ultrasound terminated at minute 60): rise
- glucose level (rats; Group-2 rats, insulin on skin, no ultrasound, minute 30 and minute 60): no lowering
- glucose level (rats; Group-2 rats, no ultrasound, minute 60 to 120): no decrease
- permeation through the skin (rats; insulin placed on the skin or delivered via transdermal patch, without ultrasound): will not permeate
